Measurements reported in the RNAGym collection of RNA variant scans (doi:10.1021/acssynbio.7b00057).

B1: Pistol ribozyme (parent)
chain: GGGUCGUUGUUCCAUAAUCGCGUGGAUAUGGCACGCAAGUUUCUACCGGGCACCGUAAAUGUCCGACUGGAGCCGUUCGGGCGGCUAUAAACAGACCUCAGGCCCGAAGCGUGGCGGCACCUGCCGCCGGUGGUAAAAAAGAUCGGAAGAGCACACGUCU

Variants of: B1
Assay: aptazyme ON/OFF ratio, guanine; higher = stronger switching; co-transcriptional cleavage with and without guanine

Row | Variant | aptazyme ON/OFF ratio
1 | U8C G9A U10A U11C C12G C13G | 1.35
2 | U10C U11C C12G C13G | 1.16
3 | U7C G9U U10G U11C C13A | 1.28
4 | U7A U8A U11C C12G | 1.17
5 | U7C U8C G9U U10A U11A C12U C13G | 1.14
6 | U7A U8G G9U U11C C12A C13A | 1.68
7 | U7G U8G G9C U10C U11G C12U C13G | 1.22
8 | U8A G9U U10C U11C C12G C13U | 1.02
9 | U7G U8G G9C U10A C12G | 1.03
10 | U7A G9C U10A C12A C13U | 1.23
11 | U7A U8C G9C U11G C12A C13A | 1.11
12 | U7G U8A U10C U11G C12U C13G | 1.29
13 | U8G G9A U11C C12G | 1.25
14 | U8A G9C U10C C12G | 1.05
15 | U7A U8G G9U U11C C12A | 1.23
16 | U7G U8G G9C U10G U11C C12U | 1.04
17 | U7G U8C G9C U10G U11G C12U C13A | 1.09
18 | U7G U8G G9C U10A U11A C12G C13U | 1.02
19 | U8A U10A U11G C12U C13A | 1.2
20 | U8G G9C U10C C12G | 1.08
21 | U7G U8C G9C U10A U11G C12G | 1.17

Row | Variant | aptazyme ON/OFF ratio
22 | U7G U8C U10A U11G C13G | 1.23
23 | U7G U8C U10A U11G C13A | 1.22
24 | U7C U8A G9C U10C U11G C13A | 1.1
25 | U8C G9C U10G C12A C13U | 1.09
26 | U7A U8C U11G C12G C13U | 1.11
27 | G9C U10A C12U C13G | 1.17
28 | U7A U8A U11C | 1.38
29 | U7G U8A G9A U10G C12U C13A | 1.27
30 | U7A U8C G9C U10A U11G C13A | 1.1
31 | U7C U8G U10G U11C C12A C13A | 1.19
32 | U7G U10C U11A C13A | 1.08
33 | U7A U8A U11A C13G | 1.09
34 | U8G G9C U11G C12U | 1.22
35 | U8G G9C U11G C12A | 1.11
36 | U7G U10A U11C C12U C13U | 1.08
37 | U7C U8G C12A C13G | 1.08
38 | G9U U10C U11G C12U C13U | 1.41
39 | U7A U8C G9A U10G U11A C12U C13U | 1.11
40 | U8A G9U U11G C12U C13G | 1.19
41 | U7G G9U U11G C12A C13U | 1.26
42 | U7G U8A G9A U10A U11A | 1.45

Row | Variant | aptazyme ON/OFF ratio
43 | U7A U8A U11A C12U C13A | 1.29
44 | U7C U8G U10A C12A C13U | 1.23
45 | U8A U10G U11G C13A | 1.33
46 | U8G U10A U11C C13G | 1.02
47 | U7C U8A G9A U10A U11A C12U C13A | 1.2
48 | U7C U8A G9A U10A U11A C12U C13G | 1.17
49 | U7C U8A G9U U10A U11A C13G | 1.07
50 | U7A U8C G9U U10C C12A C13G | 1.29
51 | U7G U8A G9C C12U | 1.04
52 | U7C U8A U10C U11G C12U C13G | 1.16
53 | U7A U8A G9U U10G U11G | 1.09
54 | U7A U8C G9C U10G U11C C12A | 1.1
55 | U8A U10A U11A C12G | 1.07
56 | U7A U8G U10C C12G C13G | 1.05
57 | U7A U8G U10A C12A C13G | 1.23
58 | U7C U8G G9A U10A C12A C13A | 1.17
59 | U7A U8C G9C U10C U11G C12U C13U | 1.09
60 | U7G U8C G9U U10A C12A | 1.88
61 | U7A U8A G9C U11G C12G C13U | 1.16
62 | G9C U10C U11G C12U C13A | 1.04
63 | U8C U10C U11G C12G C13A | 1.25

Row | Variant | aptazyme ON/OFF ratio
64 | U7C U8C G9C U10C C12G C13G | 1.04
65 | U7C U8C G9A U10C U11G C12A C13G | 1.16
66 | U7A U10G U11G C12G | 1.45
67 | U7G U8G G9U U10G C12A C13U | 1.16
68 | U7C U8A G9U C12G C13A | 1.21
69 | U8A G9U U11A C12G C13U | 1.3
70 | U7G G9A U10A U11G C12U C13U | 1.11
71 | U7A U8C G9A U10C C12G | 1.29
72 | U7G U8G G9C C12G C13A | 1.28
73 | G9C U11G C13G | 1.05
74 | G9C U11G C13U | 1.31
75 | U7A U8C U10G U11A C12U C13G | 1.14
76 | U8A C12U C13G | 1.35
77 | U7G U8C G9C U10G U11A C12A C13A | 1.1
78 | U7A U8C G9C U11C | 1
79 | U7G U8C U10G C12A C13A | 1.12
80 | U7C U8G G9C U10C U11G C12A C13U | 1.05
81 | U7A U8C G9C U10C U11G C12G C13G | 1.08
82 | U7C U8A G9A U10A U11G C13A | 1.16
83 | U8A G9U U10C U11C C13U | 1.03
84 | U7C U8G G9U U11G C12G C13U | 1.11
